The nanobody polyreactivity screen of Harvey et al. (2022)

Test: yeast display, Sf9 membrane polyspecificity reagent, FACS + sequencing; frameworks hold sequencing errors
Outline: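 A synthetic nanobody library was expressed on Saccharomyces cerevisiae BJ5465 by galactose induction for 36–48 hours. The library was stained for 1 hour at 4 °C with 10% biotinylated, detergent-solubilized Sf9 membrane reagent and enriched with streptavidin microbeads before FACS. Low and high (top ~1%) gates were set on anti-HA fluorescence for expression and streptavidin fluorescence for reagent binding, and each polyreactivity label reflects the gate of origin.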

| Sequence | polyreactivity (PSR sort gate) |
| --- | --- |
| QVQLVESGGGLDQAGGSLRLSCAASGRIFQYYAMGWYRQAPGKERELVAAITSGGRTTYADSVKGRFTISRDNAKNNVYLQMNSLKPEDTAVYYCNAKTWYSYNYWGQGTQVTVSS | high polyreactivity |
| QVQLVESGGGLDQAGGSLRLSCAASGRIFRPNAMGWYRQAPGKERELVAAITSGGSTNYADSVKGRFTISRDNAKNTVYLQMNSLKPEDNAVYYCAKGYKYGKNIYYYWGQGTQVTVSS | high polyreactivity |
| QVQLVESGGGLDQAGGSLRLSCAASGRIFRYNAMVWYRQAPGKERELVASISGTSRTKYADSVKGRFTISRDNAKNTVYLQMNSLKPEDTAVYYCAARRYGWGRAQSSASYDHWGQGTQVTVSS | high polyreactivity |
| QVQLVESGGGLDQAGGSLRLSCAASGRIFTAYAMGWYRQAHGKERELVAAISSGDSTYYADSVKGRFTISRDNAKNTVYLQMNSLKPEDTAVYYCATGVYPDFEYDSWGQGTQVTVSS | low polyreactivity |
| QVQLVESGGGLDQAGGSLRLSCAASGRIFTVYAMGGYRQAPGKERELVAAISGRGGRTYYADSVKGRFTISRDIAKNTVYLQMNSLKPEDTAVYYCNADTLTLTRPDGDIHTVWMDYWGQGTQVTVSS | low polyreactivity |
| QVQLVESGGGLDQAGGSLRLSCAASGRNFTRYAMGWYRQAPGKERELVAVITRSGGSTYYADSVKGRFTISRDNAKNTVYLQMNSVKPEDTAVYYCDAKYYGEMYYWGQRTQVTVSS | low polyreactivity |
| QVQLVESGGGLDQAGGSLRLSCAASGRTFAYYAIGWYRQAPGKERELVATITSYVGRTYYADSVKGRFTISRDNAKKSVYLQMNSLKPDDTAVYYSNARDWGRTRGGGYPWLYRYDYWGQGTQVTVSS | low polyreactivity |
| QVQLVESGGGLDQAGGSLRLSCAASGRTFFDYAMGWYRQATGKERELVAAINWSGGRTYYADSVKGRFTISRDNAKNTVYLQMISLKPEDTAVYYCAAIYGSLYPTGQTRRDYYSWGQGTKVTVSS | low polyreactivity |
| QVQLVESGGGLDQAGGSLRLSCAASGRTFGTYVMGWSRQAPGKERELVAAITGSGGSTYYADSVKGRFTISRDIAKNSVYLQMNSLKPEDTAVYYCSAKYRRPRYGFWGQGTQVTVSS | high polyreactivity |
| QVQLVESGGGLDQAGGSLRLSCAASGSIFAYYVMGWYRQAKGKERELVAAITSVGSTNYADSVKGRFTISRDNAKNTVYLQMNSLKPEESAVFYCAADQYQARYYYWGQGTQVTVSS | low polyreactivity |
| QVQLVESGGGLDQAGGSLRLSCAASGSIFDSNALGWYRQAPGKERELVASITSSGGSTYYADSVKGRFTISRDKAKNTVYLQMNSLKPEDTAVYYCAADSYKTKHDAYDYCGQGTQVTVSS | high polyreactivity |
| QVQLVESGGGLDQAGGSLRLSCAASGSIFDSYVMGWYRQAPGKERDLVAAFSRGGSTYYADSVKGRFTISRDNAQNTVYLQINSLKPEDTSVYYCAAGYRVHSPDDCYWGQGTQVTVSS | low polyreactivity |
| QVQLVESGGGLDQAGGSLRLSCAASGSIFGYYAMGWYRQAPGKERELVAAISWSDGSTYYADSVKGRFTISRDNAKNTVYLQMNSLKPEDTAVYSCAARFTPYITSDDGHYDYWGQGTEVTVSS | low polyreactivity |
| QVQLVESGGGLDQAGGSLRLSCAASGSIFRGYAMGWYRQAPGKERDLVAAINRSGGRTYYADSVKGRFTISRDNAKNTVYLQMNRLKPEDTAVYYCAADYFFYQPSGYDYWGQGTQVTVSS | high polyreactivity |
| QVQLVESGGGLDQAGGSLRLSCAASGSIFRNYAMGWYRQAPGKEREFVAAISGGGGSTYYADSVKGRFTISRDNAKNTVYLQMNSLKPEDTAVYYCARVRYYGALKLYAYDHWGQGTQVTVSS | high polyreactivity |
| QVQLVESGGGLDQAGGSLRLSCAASGSIFRPYTMGWYRQAPGKERELVAAITGTCGSTRYADSVKGRFTISRDNAKNTVYLQMNSLNPEDNAVYYCAVYPPYRGRYDYRKYDSWGQGTQVTVSS | low polyreactivity |
| QVQLVESGGGLDQAGGSLRLSCAASGSIFRYYAMGWYRQAPGKEREFVASITYRGGRTYYADSVKGRFTISRDNAKNTVYLQMNSLKPEDTAVYYCAARTRAGAWTSKYHDYWGQGTQVTVSS | high polyreactivity |
| QVQLVESGGGLDQAGGSLRLSCAASGSIFRYYVMGWYRQAPGKERELVAAISWSGGTTYYADSVKGRFTISRDNAKNTVYLQMNSLKPEDTAVYYCAAKGPLGYYHATDYHDYWGQGTQVTVSS | high polyreactivity |
| QVQLVESGGGLDQAGGSLRLSCAASGSIFSYYAMGWYRPAPGKERELVADNRWSGGSTYYADSVKGRFTISRDKAKNTVYLQMNSLKPEDTAVYYCNTLYLVYLYWTSPTPSDLFDYWGQGTQVTVSS | low polyreactivity |
| QVQLVESGGGLDQAGGSLRLSCAASGSIFSYYAMGWYRQAPGKERELVAAITIRGGRTYYADSVKGRFTISRDNAKNTVYLQMNSLKPEDTAVYYCAADWLNSDPYNYWGQGTQVTVSS | low polyreactivity |
| QVQLVESGGGLDQAGGSLRLSCAASGSIFTYYAIGWYRQAPGKERELVADISQRGGSTYYADSVKGRFTISRDNAKNTVYLQMISLKPEDTAVYYCATRARYTWRAFEYWGQGTQVNVSS | low polyreactivity |
| QVQLVESGGGLDQAGGSLRLSCAASGSIFVIYAMGWYRQAPGKERELVAAIRFSTGSTYYADSVKGRFTISRDNAKNTVYLQMNSLKPEDTAVYYCAARTFKYGSYAYEYWGQGTQVTVSS | high polyreactivity |

| Sequence | polyreactivity (PSR sort gate) |
| --- | --- |
| QVQLVESGGGLDQAGGSLRLSCAASGSIFVTNVMGGYRQAPGKERELVAAISSSGTRTYADSVKGRFTISRDNAKNTVYLQMNSLKTEDTAVYYCAKDYRVWVAATIAHDYWGQGTQVTVSS | low polyreactivity |
| QVQLVESGGGLDQAGGSLRLSCAASGSIFWAYVMGWYRQAPGKERELVARISSGGRTKYADSVKGRFTISRDNAKNTVYLQMNSLKPEDTAVYYCNADASSSPYTDRQYIGADDSWGHGTQVTVSS | low polyreactivity |
| QVQLVESGGGLDQAGGSLRLSCAASGSIFYFNAMGWYRQAPGKARELVAAISTSGGSTYADSVKGRFTISRDNAKYTVYLQMNSLKPEDSAVYYFAADYLTSRSRTFDYWGQGTQVTVSS | low polyreactivity |
| QVQLVESGGGLDQAGGSLRLSCAASGSIFYTNAMGWYRQAPRKERELVAAITSADSTYYADSVKGRFTISRDNANNTVYLQMNSLKPEDTAFYYCANDVYYYYRWYEYWGQGTQVTVSS | high polyreactivity |
| QVQLVESGGGLDQAGGSLRLSCAASGSIILVNAMGWYRQAPGKERELVAAISWRGGRTRYADSVKGRFTISRDNAKNTVYLQMNSLKPEDTAVYYCAAAGRPVGPRYDYWGQGTQVTVSS | high polyreactivity |
| QVQLVESGGGLDQAGGSLRLSCAASGSTFGTYAMGWYRQAPGKEWQLVADITGSGGSTYYADSVKGRFTISRDNAKNTVYLQMNSLKPEDTAVYYCAGEYGLGDDTAYGYWGQGTQGTVSS | low polyreactivity |
| QVQLVESGGGLDQAGGSLRLSCAASGSTFKHNAMGWYRQAPGKERKLVAGISWGGSSTYYADSVKGRFTISRDNAKNTVYLQMNSLKPEDTAVYYCAKGGYRRYGYDYWGQGTQETVSS | low polyreactivity |
| QVQLVESGGGLDQAGGSLRLSCAASGSTFPKYGMGWYRQSPGKDREFVARINWNGGGTYYADSVKGRFTISRDNAKNTVYLQMNSLKPEDTAVYYCAADYEYYYFWDYYWGQGTQVTVSS | low polyreactivity |
| QVQLVESGGGLDQAGGSLRLSCAASGSTFRQNVKGWYRQAPGKERELVAAISKSGGSTYYADSVKGRFTISRDNAKNTVYLQMNSLKPEDTAVYYCATRQRQRVDNREYYYWGQGTQVTVSS | high polyreactivity |
| QVQLVESGGGLDQAGGSLRLSCAASGSTFVGYAMGWYRQAPGKERELVAAISYSGGRTYYADSVKGRFTISRDNAKNTVYLQMNSLKPEDTAVYYCAALVGGSGWWGRDYWGQGTQVTVSS | high polyreactivity |
| QVQLVESGGGLDQAGGSLRLSCAASGSTFVVNAMGWYRQAPGKERELVAAIRNSGSTTYADSVKGRFTISRDNAKYTVYLQMNSLKPEDTAVYYCATDFSATVTAVQINPYDYWGQGTQVTVSS | low polyreactivity |
| QVQLVESGGGLDQAGGSLRLSCAASGSTLGRNAMGWYRQAPGKERELVAAISSSSGRTYYADSVKGRFTISRDNAKNTVYLQMNSLKPEDTAVYYCAATHAVARPLEYDYWGQGTQVTVSS | low polyreactivity |
| QVQLVESGGGLDQAGGSLRLSCAASGTFSRNAMGWYRQAPGKERELLADISGGRSTDYADSVKGRFTISRDNAKNTVYLQMNSLKPEDTAVYYCAAYGYLWWEMDYWGQGTQVTVSS | high polyreactivity |
| QVQLVESGGGLDQAGGSLRLSCAASGYTFFSNAMGWYRQAPGKERELVAAITFSGGSTYYADSVKGRFTISRDNAKNTVYLHMNSLKPEDTAVYYCATRYYYHYPRKHIYNYWGQGTQVTVSS | high polyreactivity |
| QVQLVESGGGLDQAGGSLRLSCAASVSTFLVNTMGWYRQAPGKEREFVAAYADSVKGRFTISRDNAKNTVYLQMNSLKPEYTAVYYCNAGGSEIYRSPFDYWGQGTQVTVSS | low polyreactivity |
| QVQLVESGGGLDQAGGSLRLSCADSGSIFVYYAMGWYRQAPGKERELVAAITTSGGSTYYADSVKGRFTISRDNAKNTVYLQMNSLKPEDTAVYYCAAELLAWYWSYSVPWPYDYWGQGTQVTVSS | low polyreactivity |
| QVQLVESGGGLDQAGGSLRLSCADSGYTFRAYAMGWYRQAPGKERELVAAITRSGTSTYYADSVKGRFTISRDNAKNTVYLQMNSLKPEDTAVYYCNVDVYLYAKEYDYWGQGTQVTVSS | high polyreactivity |
| QVQLVESGGGLDQAGGSLRLSCASGRIFKKNAMGWYRQAPGNERELVAGITISGGRTYYADSVKGRFTISRDNAKNTVYLQMNSVKPEDTAVYYCNAGPDRRVSYYRLLDHWGQGTQVTVSS | low polyreactivity |
| QVQLVESGGGLDQAGGSLRLSCPASGITFGYNDMGRYRQAPGKERELVAAINRGASTYYADSVKGRFTISRDNAKNTVYLQMYSLKPEDTAVYYCNADHRDTFIWVGLPHMDYWGQGTQVTVSS | low polyreactivity |
| QVQLVESGGGLDQAGGSLRLSSAASGRTVDIYAMGWYRQAPWKEWELVAAITRGGSTYYADSVKGRFTISRDNAKNTVYLQMNCLIPEDTAVYYCSAKLGTGYRRWYDYWGQGTQVTVSS | high polyreactivity |
| QVQLVESGGGLDQAGGSRRLSCAASGSTFSSYAMGWYSQAPGQARELVAVITASGGSTYYADSVKGRFTISRDNPKNTVYLQMNSLKPDDTAVYYCAADPRSGDQYGKGDYWGQGTQVTGSS | low polyreactivity |
